Source: US5523287A, “Thrombin-inhibitory protein from assassin bugs” (BASF Aktiengesellschaft, priority 1991, dated 1996)

B1: novel protein: Thrombin-inhibitory protein isolated from assassin bugs (Rhodnius prolixus); contains 103 amino acids of SEQ ID NO: 3, N-terminus SEQ ID NO: 1 (protein)
chain: EGGEPCACPHALHRVCGSDGETYSNPCTLNCAKFNGKPELVKVHDGPCEPDEDEDVCQECDGDEYKPVCGSDDITYDNNCRLECASISSSPGVELKHEGPCRT

Legend:
[1] = Determination of the isoelectric point by isoelectric focusing; format: physicochemical; conditions: Ampholine PAGplate pH 3.5-9.5, located by thrombin inhibition assay
Protocol: The determination was carried out with an LKB Multiphor 2117 (horizontal system) and an LKB 2103 power supply. Precast gels were employed (Pharmacia Ampholine PAGplate pH 3.5-9.5). The standard proteins employed were amyloglucosidase, pH 3.5; soybean trypsin inhibitor, pH 4.55; β-lactoglobulin A, pH 5.2; bovine carbonic anhydrase, pH 5.85; human carbonic anhydrase, pH 6.55; horse myoglobin, pH 6.85 and 7.35; lentil lectin, pH 8.15, 8.45, 8.65 and trypsinogen, pH 9.3.
Focusing conditions: 1500 volts, 30 watts. Buffers:
cathode 1M sodium hydroxide solution
The plates were prefocused for 30 minutes to produce a pH gradient. The samples were loaded onto filter disks which lay on the gel. Focusing was continued for 30 minutes, the filter disks were removed and, after a further 30 minutes, focusing was stopped. The gels were immediately cut into 2 mm slices and transferred into distilled water. The protein eluted out of the gel slices overnight. The location of the thrombin inhibitor was determined by a thrombin inhibition assay. The pH can also be determined directly using a pH electrode.

[2] = system: Thrombin; test: Binding to affinity column with immobilized thrombin; conditions: immobilized thrombin on Sepharose
Protocol: The combined active fractions were loaded onto an affinity column with immobilized thrombin (diameter 1.5 cm, height 6.5 cm, volume 11.5 ml, 60 ml/h). The column was prepared as in Example 3.
The column was equilibrated with 20 mM sodium phosphate pH 7.5. After the protein solution had been loaded onto the column it was washed with 10 column volumes of equilibration buffer until the absorption at 280 nm decreased to zero.
It was then washed with 0.5M NaCl, 20 mM sodium phosphate buffer pH 7.5. This removed non-specifically adsorbed material.
Protein specifically bound to thrombin was eluted with 0.1M glycine, 0.5M NaCl pH 2.8. The column was then immediately readjusted to pH 7.5 with phosphate buffer.
2 g of CNBr-activated Sepharose (Pharmacia) were washed with 200 ml of 1 mM HCl on a suction funnel. The gel was taken up in 100 mM NaHCO3, 500 mM NaCl pH 8.3 and immediately mixed with 10,000 units of thrombin (Sigma) in 100 mM NaHCO3, 500 mM NaCl, pH 8.3.
The solution was gently shaken at 4° C. for 24 hours.
The gel material was allowed to settle and then washed with 100 mM NaHCO3, 500 mM NaCl, pH 8.3. The Sepharose was then incubated with 100 mM NaHCO3, 500 mM NaCl, 1M ethanolamine pH 8.3 for 2 hours.
To remove unbound thrombin, before use the gel material is washed once more in the column with 20 column volumes of PBS pH 7.4.

[3] = system: Thrombin; test: Determination of the inhibition of thrombin by the inhibitor (Chromozym TH optical assay); format: biochemical; conditions: in vitro enzyme assay
Protocol: The purification of the protein can be monitored by a thrombin activity assay. It is expedient to use an optical assay in which a chromogenic substrate, for example Chromozym T, is converted by thrombin. The fractions containing the novel protein can be identified by their thrombin-inhibiting action on addition to this optical assay.
Thrombin (Boehringer Mannheim) was dissolved to a final concentration of 25 mU/ml in phosphate-buffered saline (PBS) ([…], […], 0.144 g/l sodium phosphate, 0.2 g/l potassium phosphate, pH 7.5).
Chromozym TH (Boehringer Mannheim) was dissolved in 20 ml of H2 O per vial.
50 μl of thrombin solution and 100 μl of Chromozym plus 25 μl of sample or buffer were placed in the wells of a microtiter plate. The absorption at 405 nm was measured at 37° C. immediately thereafter at time 0 and after 30 minutes.
When the sample was deeply colored another control without thrombin was treated as described above.
The activity of thrombin liberates a dye which absorbs at 405 nm from the chromogenic substrate. Inhibition of the thrombin by a thrombin inhibitor is evident from a smaller increase in the absorption at 405 nm and was quantified using a calibration plot.

Molecule	isoelectric point [1]	binding to thrombin affinity column [2]	isoelectric point ([1]; listed as novel inhibitor)	inhibition of the biological activity of thrombin [3]
hirudin [reference compound]	≤ 3.5 pH	–	–	–
B1	3.7-4.7 pH	binds specifically to a thrombin affinity column	4.2±0.5 pH	inhibits the biological activity of thrombin
